Laboratory results reported in PMC6366860.

Columns and labels:
[1] = target: F-actin from rabbit skeletal muscle (rabbit) (UniProt P68135); test: co-sedimentation
[2] = target: murine α-cardiac myosin (filaments) (mouse) (UniProt Q02566); test: co-sedimentation

Row | Kd [1] | stoichiometry N (mol C0-C2/mol actin) [1] | cosedimentation relative to human C0-C2 [2] | Substance
1 | 7.9 µM | 1 | 60% | wild-type mouse cMyBP-C C0-C2 (with the N-terminal extension, NTE) (domain or fragment)
2 |  |  | 162% | mouse short form C0-C2, N-terminal tagged (mSF2), lacking the 8 amino acid NTE (domain or fragment)
